# In patent publication US20180155451A1 (published 2018):
# B1: GpH7-A5/GpH7-B3 variant E269_18N/GpL16-k0 (antibody, human IgG1, kappa)
# heavy 1: not shown
# heavy 2: not shown
# light: DIVMTQSPLSLPVTPGEPASISCQASESLVHSNRNTYLHWYLQKPGQSPQLLIYKVSNRFSGVPDRFSGSGSGTDFTLKISRVEAEDVGVYYCSQNTHVPPTFGQGTKVEIERTVAAPSVFIFPPSDEQLKSGTASVVCLLNNFYPREAKVQWKVDNALQSGNSQESVTEQDSKDSTYSLSSTLTLSKADYEKHKVYACEVTHQGLSSPVTKSFNRGEC
# notes: heterodimerized; also called He Ab E269_18N
# B2: GpH7-A5/GpH7-B3 variant E333_13S/GpL16-k0 (antibody, human IgG1, kappa)
# heavy 1: not shown
# heavy 2: not shown
# light: B1 light
# notes: heterodimerized; also called He Ab E333_13S
# B3: GpH7-A5/GpH7-B3 variant E269_19Q/GpL16-k0 (antibody, human IgG1, kappa)
# heavy 1: not shown
# heavy 2: not shown
# light: B1 light
# notes: heterodimerized; also called He Ab E269_19Q
# B4: GpH7-A5/GpH7-B3 variant I336_18N/GpL16-k0 (antibody, human IgG1, kappa)
# heavy 1: not shown
# heavy 2: not shown
# light: B1 light
# notes: heterodimerized; also called He Ab I336_18N
# B5: GpH7-A5/GpH7-B3 variant K334_10E/GpL16-k0 (antibody, human IgG1, kappa)
# heavy 1: not shown
# heavy 2: not shown
# light: B1 light
# notes: heterodimerized; also called He Ab K334_10E
# B6: GpH7-A5/GpH7-B3 variant E333_03V/GpL16-k0 (antibody, human IgG1, kappa)
# heavy 1: not shown
# heavy 2: not shown
# light: B1 light
# notes: heterodimerized; also called He Ab E333_03V
# B7: GpH7-A5/GpH7-B3 variant G236_02A/GpL16-k0 (antibody, human IgG1, kappa)
# heavy 1: not shown
# heavy 2: not shown
# light: B1 light
# notes: heterodimerized; also called He Ab G236_02A
# B8: GpH7-A5/GpH7-B3 variant K326_16H/GpL16-k0 (antibody, human IgG1, kappa)
# heavy 1: not shown
# heavy 2: not shown
# light: B1 light
# notes: heterodimerized; also called He Ab K326_16H
# B9: GpH7-A5/GpH7-B3 variant E333_14T/GpL16-k0 (antibody, human IgG1, kappa)
# heavy 1: not shown
# heavy 2: not shown
# light: B1 light
# notes: heterodimerized; also called He Ab E333_14T
# B10: GpH7-A5/GpH7-B3 variant E333_04F/GpL16-k0 (antibody, human IgG1, kappa)
# heavy 1: not shown
# heavy 2: not shown
# light: B1 light
# notes: heterodimerized; also called He Ab E333_04F
# B11: GpH7-A5/GpH7-B3 variant G236_20W/GpL16-k0 (antibody, human IgG1, kappa)
# heavy 1: not shown
# heavy 2: not shown
# light: B1 light
# notes: heterodimerized; also called He Ab G236_20W; GpH7-A5/GpH7-B3-03-20W/GpL16-k0
# B12: GpH7-A5/GpH7-B3 variant L234_07I/GpL16-k0 (antibody, human IgG1, kappa)
# heavy 1: not shown
# heavy 2: not shown
# light: B1 light
# notes: heterodimerized; also called He Ab L234_07I
# B13: GpH7-A5/GpH7-B3 variant K334_20W/GpL16-k0 (antibody, human IgG1, kappa)
# heavy 1: not shown
# heavy 2: not shown
# light: B1 light
# notes: heterodimerized; also called He Ab K334_20W
# B14: GpH7-A5/GpH7-B3 variant H268_12R/GpL16-k0 (antibody, human IgG1, kappa)
# heavy 1: not shown
# heavy 2: not shown
# light: B1 light
# notes: heterodimerized; also called He Ab H268_12R
# B15: GpH7-A5/GpH7-B3 variant L328_03V/GpL16-k0 (antibody, human IgG1, kappa)
# heavy 1: not shown
# heavy 2: not shown
# light: B1 light
# notes: heterodimerized; also called He Ab L328_03V
# B16: GpH7-A5/GpH7-B3 variant K334_06M/GpL16-k0 (antibody, human IgG1, kappa)
# heavy 1: not shown
# heavy 2: not shown
# light: B1 light
# notes: heterodimerized; also called He Ab K334_06M
# B17: GpH7-A5/GpH7-B3 variant L234_15Y/GpL16-k0 (antibody, human IgG1, kappa)
# heavy 1: not shown
# heavy 2: not shown
# light: B1 light
# notes: heterodimerized; also called He Ab L234_15Y; GpH7-A5/GpH7-B3-01-15Y/GpL16-k0
# B18: GpH7-A5/GpH7-B3 variant E269_20W/GpL16-k0 (antibody, human IgG1, kappa)
# heavy 1: not shown
# heavy 2: not shown
# light: B1 light
# notes: heterodimerized; also called He Ab E269_20W
# B19: GpH7-A5/GpH7-B3 variant I336_02A/GpL16-k0 (antibody, human IgG1, kappa)
# heavy 1: not shown
# heavy 2: not shown
# light: B1 light
# notes: heterodimerized; also called He Ab I336_02A
# B20: GpH7-A5/GpH7-B3 variant E333_01G/GpL16-k0 (antibody, human IgG1, kappa)
# heavy 1: not shown
# heavy 2: not shown
# light: B1 light
# notes: heterodimerized; also called He Ab E333_01G
# B21: GpH7-A5/GpH7-B3 variant E333_12R/GpL16-k0 (antibody, human IgG1, kappa)
# heavy 1: not shown
# heavy 2: not shown
# light: B1 light
# notes: heterodimerized; also called He Ab E333_12R
# B22: GpH7-A5/GpH7-B3 variant H268_20W/GpL16-k0 (antibody, human IgG1, kappa)
# heavy 1: not shown
# heavy 2: not shown
# light: B1 light
# notes: heterodimerized; also called He Ab H268_20W
# B23: GpH7-A5/GpH7-B3 variant H268_08L/GpL16-k0 (antibody, human IgG1, kappa)
# heavy 1: not shown
# heavy 2: not shown
# light: B1 light
# notes: heterodimerized; also called He Ab H268_08L
# B24: GpH7-A5/GpH7-B3 variant E333_06M/GpL16-k0 (antibody, human IgG1, kappa)
# heavy 1: not shown
# heavy 2: not shown
# light: B1 light
# notes: heterodimerized; also called He Ab E333_06M
# B25: GpH7-A5/GpH7-B3 variant L328_20W/GpL16-k0 (antibody, human IgG1, kappa)
# heavy 1: not shown
# heavy 2: not shown
# light: B1 light
# notes: heterodimerized; also called He Ab L328_20W
# B26: GpH7-A5/GpH7-B3 variant E333_11K/GpL16-k0 (antibody, human IgG1, kappa)
# heavy 1: not shown
# heavy 2: not shown
# light: B1 light
# notes: heterodimerized; also called He Ab E333_11K
# B27: GpH7-A5/GpH7-B3 variant K334_12R/GpL16-k0 (antibody, human IgG1, kappa)
# heavy 1: not shown
# heavy 2: not shown
# light: B1 light
# notes: heterodimerized; also called He Ab K334_12R
# B28: GpH7-A5/GpH7-B3 variant I336_06M/GpL16-k0 (antibody, human IgG1, kappa)
# heavy 1: not shown
# heavy 2: not shown
# light: B1 light
# notes: heterodimerized; also called He Ab I336_06M
# B29: GpH7-A5/GpH7-B3 variant P238_15Y/GpL16-k0 (antibody, human IgG1, kappa)
# heavy 1: not shown
# heavy 2: not shown
# light: B1 light
# notes: heterodimerized; also called He Ab P238_15Y
# B30: GpH7-A5/GpH7-B3 variant P238_06M/GpL16-k0 (antibody, human IgG1, kappa)
# heavy 1: not shown
# heavy 2: not shown
# light: B1 light
# notes: heterodimerized; also called He Ab P238_06M
# Target: T1, FcγRIa (human, UniProt P12314 16-292)
# T1 construct: extracellular domain; also called FcgRI; CD64
# T1 sequence (P12314 16-292): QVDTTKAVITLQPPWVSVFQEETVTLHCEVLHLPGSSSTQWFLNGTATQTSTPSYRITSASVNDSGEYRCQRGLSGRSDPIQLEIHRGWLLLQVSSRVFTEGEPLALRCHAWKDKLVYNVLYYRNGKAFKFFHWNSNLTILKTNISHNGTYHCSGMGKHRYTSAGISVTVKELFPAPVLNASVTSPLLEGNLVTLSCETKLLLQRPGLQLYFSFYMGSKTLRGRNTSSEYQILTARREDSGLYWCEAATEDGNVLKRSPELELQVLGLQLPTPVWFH
# Assay: SPR; vs GpH7-A5/GpH7-B3/GpL16-k0=100
row,He/Con_1a,Binder
1,102 % of control,B1
2,103 % of control,B2
3,105 % of control,B3
4,108 % of control,B4
5,110 % of control,B5
6,105 % of control,B6
7,100 % of control,B7
8,103 % of control,B8
9,102 % of control,B9
10,102 % of control,B10
11,105 % of control,B11
12,103 % of control,B12
13,106 % of control,B13
14,106 % of control,B14
15,101 % of control,B15
16,105 % of control,B16
17,100 % of control,B17
18,105 % of control,B18
19,106 % of control,B19
20,103 % of control,B20
21,102 % of control,B21
22,107 % of control,B22
23,107 % of control,B23
24,102 % of control,B24
25,103 % of control,B25
26,102 % of control,B26
27,104 % of control,B27
28,108 % of control,B28
29,101 % of control,B29
30,102 % of control,B30
